The results in this text go back to US20220195497A1 (ROCHE DIAGNOSTICS OPERATIONS, published 2022).

First the molecules themselves.
T1: hTK (UniProt P04183 1-234)
T1 sequence (looked up): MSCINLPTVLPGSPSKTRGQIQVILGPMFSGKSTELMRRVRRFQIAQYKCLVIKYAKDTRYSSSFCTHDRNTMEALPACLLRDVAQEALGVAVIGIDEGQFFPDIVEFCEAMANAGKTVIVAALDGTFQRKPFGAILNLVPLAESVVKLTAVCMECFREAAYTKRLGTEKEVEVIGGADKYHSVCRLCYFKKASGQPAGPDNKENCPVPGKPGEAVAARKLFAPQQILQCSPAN

B1: 4H4-IgG (antibody, V domains shown)
VH: CQSLEESGGGLVQPEGSLTLTCTASGFSFSSGYDMCWVRQTPGKGLEWIACISVDSDGVTYYASWAKGRFTISKTSSTTVTLQMTSLTAADTATYFCARGYESSSGVYIPYFTLWGPGTLVTVSS
VL: DIVLTQTPASVEAAVGGTVTIKCQASQSIYSYLAWYQHKPGQPPKLLIYKASTLASGVPSRFKGSGSGTEYTLTISDLECADAATYYCQHYYYSSTSGGGVFGGGTEVVVK
B2: 23C11-IgG (antibody, V domains shown)
VH: CQSLEESGGRLVTPGTPLTLTCTASGFSLSNYYMSWVRQAPGKGLEWIGIIYGDDNTYCANWTKGRFTISKTSTTVDLTITSPTTEDTATYFCARGPDYIAAKMDIWGPGTLVTVSL
VL: DVVMTQTPASVEAAVGGTVTIKCQASQSISGYLSWYQQKPGQRPKLLIYRASTLESGVPSRFKGSGSGTEFTLTISDLECADAATYYCQCTYGSSTFSSYGNAFGGGTEVVVK
B3: 6C6-IgG (antibody, V domains shown)
VH: QEQLEESGGDLVKPEGSLTLTCTASRFSFSSSYWICWVRQAPGKGLEWIACIYAGDSGSSYYASWAKGRFTVSKTSSTTVTLQTTSLTAADTATYFCARASVGAAYDYFALWGPGTLVTVSS
VL: ALVMTQTPASVEAAMGGTVTIKCQASEDVSSHLAWYQQRPGQPPKLLIYGASDLASGVPSRFTGSGSGTQFTLAISDLECADAATYYCQGYYYISDSPYVFGGGTEVVVK

The target of one experiment is T1, hTK. As to the kind of experiment: SPR sandwich matrix on hTK; row = primary antibody; secondary antibody (competitor): 6C6-IgG.
Regarding B1, the “Molar Ratio Epitope Accessibility (MREA)” value came to 0.

B2: the “Molar Ratio Epitope Accessibility (MREA)” value amounted to 0.

Consider B3, for which the “Molar Ratio Epitope Accessibility (MREA)” value was found to be 0.

Another experiment deals with T1, hTK. As to the kind of experiment: SPR sandwich matrix on hTK; row = primary antibody; secondary antibody (competitor): 23C11-IgG.
As for B1, the “Molar Ratio Epitope Accessibility (MREA)” value was determined as 0.

In the case of B2, the “Molar Ratio Epitope Accessibility (MREA)” value was determined as 0.

As for B3, the “Molar Ratio Epitope Accessibility (MREA)” value amounted to 0.

A further experiment deals with T1, hTK. As to the kind of experiment: SPR sandwich matrix on hTK; row = primary antibody; secondary antibody (competitor): Antibody A.
Take B1: the “Molar Ratio Epitope Accessibility (MREA)” value stood at 0.2.

In the case of B2, the “Molar Ratio Epitope Accessibility (MREA)” value is 0.2.

B3: the “Molar Ratio Epitope Accessibility (MREA)” value worked out at 0.4.

A further experiment addresses T1, hTK. As to the kind of experiment: SPR sandwich matrix on hTK; row = primary antibody; secondary antibody (competitor): 4H4-IgG.
As to B1, the “Molar Ratio Epitope Accessibility (MREA)” value stood at 0.

For the molecule B2, the “Molar Ratio Epitope Accessibility (MREA)” value was 0.

Regarding B3, the “Molar Ratio Epitope Accessibility (MREA)” value turned out to be 0.
